According to patent US20090252727A1 (Eli Lilly, published 2009):
Like-named read-outs stand apart in the source and are kept apart here.

Assays:
Assay in all cases: competition with [125I]glucagon, SPA, membranes of 293HEK cells expressing the receptor
[1] = target: T1, human glucagon receptor (human, UniProt P47871 27-477)
T1 construct: Cloned receptor expressed in 293HEK cells; also called human GluR; human GlucR

[2] = target: T2, mouse glucagon receptor (mouse, UniProt Q61606 28-485)
T2 construct: Cloned receptor expressed in 293HEK cells; also called murine GluR; mouse GlucR
T2 chain: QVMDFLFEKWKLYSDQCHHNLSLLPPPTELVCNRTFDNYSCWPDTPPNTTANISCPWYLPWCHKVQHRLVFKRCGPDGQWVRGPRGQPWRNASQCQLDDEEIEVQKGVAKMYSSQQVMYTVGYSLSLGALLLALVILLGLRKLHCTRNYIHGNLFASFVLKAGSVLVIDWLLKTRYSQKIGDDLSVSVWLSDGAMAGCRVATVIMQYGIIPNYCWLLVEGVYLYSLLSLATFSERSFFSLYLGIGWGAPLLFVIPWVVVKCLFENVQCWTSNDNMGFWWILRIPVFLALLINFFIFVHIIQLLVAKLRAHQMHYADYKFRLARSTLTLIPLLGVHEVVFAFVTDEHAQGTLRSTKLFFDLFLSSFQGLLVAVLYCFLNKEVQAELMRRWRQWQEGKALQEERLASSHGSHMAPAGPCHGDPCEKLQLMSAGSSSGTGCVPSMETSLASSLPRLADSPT

[3] = target: T3, rat glucagon receptor (rat, UniProt P30082 28-485)
T3 construct: Cloned receptor expressed in 293HEK cells; also called rat GluR; rat GlucR

[4] = target: T4, cynomologous monkey glucagon receptor (cynomologous monkey, UniProt P47871 27-477 (human entry))
T4 construct: Cloned receptor expressed in 293HEK cells; also called cyno GluR; cyno GlucR
T4 chain: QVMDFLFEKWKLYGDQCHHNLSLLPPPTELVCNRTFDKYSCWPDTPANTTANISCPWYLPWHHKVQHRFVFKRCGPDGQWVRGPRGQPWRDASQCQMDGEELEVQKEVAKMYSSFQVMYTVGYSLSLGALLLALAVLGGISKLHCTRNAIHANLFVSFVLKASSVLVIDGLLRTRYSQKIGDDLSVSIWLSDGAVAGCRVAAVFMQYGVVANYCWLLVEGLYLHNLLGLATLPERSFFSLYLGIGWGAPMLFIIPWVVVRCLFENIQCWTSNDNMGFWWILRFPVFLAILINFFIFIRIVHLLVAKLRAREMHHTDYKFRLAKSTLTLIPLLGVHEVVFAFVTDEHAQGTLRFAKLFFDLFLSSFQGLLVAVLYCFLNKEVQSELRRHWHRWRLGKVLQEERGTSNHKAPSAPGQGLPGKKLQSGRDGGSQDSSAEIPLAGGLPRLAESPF

[5] = target: T1, human glucagon receptor; remark: listed apart in the source
Procedure: (§1) A competitive receptor/ligand binding experiment is adapted to a scintillation proximity assay (SPA) format. Incubations are performed in clear bottom, opaque 96-well microplates. Compound is serially diluted 3-fold in binding buffer consisting of 25 mM Hepes, pH 7.4, 2.5 mM CaCl₂, 1 mM MgCl₂, 0.1% fatty acid free BSA, 0.003% tween-20 and Complete^R EDTA-free protease inhibitor tablets. […] Plates are sealed with adhesive sealing tape, mixed end over end, and incubated at room temperature for 12 hours. The radioactivity bound to the receptor (in close proximity to the WGA SPA bead) is quantified on a PE Life and Analytical Sciences Trilux Microbeta plate scintillation counter and expressed as counts per minute (CPM).

[6] = target: T2, mouse glucagon receptor
Procedure: as §1

[7] = target: T3, rat glucagon receptor; remark: listed apart in the source
Procedure: as §1

[8] = target: T4, cynomologous monkey glucagon receptor
Procedure: as §1

Ki [1]: < 50 nM
Ki [2]: < 50 nM
Ki [3]: < 50 nM
Ki [4]: < 50 nM
Ki [5]: 1.34 nM
Ki [6]: 0.83 nM
Ki [7]: 1.24 nM
Ki [8]: 6 nM
B1: Antibody of example 4 (Ab4) (antibody, human IgG4 S228P, kappa, F234A L235A, V domains shown)
VH: QVQLQESGPGLVKPSETLSLTCTVSGDDITSGYHDWIRQPPGKGLEWIGYISYSGSTYYSPSLKSRVTISVDTSKNQFSLKLSSVTAADTAVYYCARPPGYYGFGPYALDYWGQGTLVTVSS
VL: DIQMTQSPSSLSASVGDRVTITCSASSSVSYIHWYQQKPGKAPKLLIYTTSYLAHGVPSRFSGSGSGTDFTLTISSLQPEDFATYYCQQRSTLPPTFGGGTKVEIKR
notes: Humanized full antibody with kappa light chain and modified human IgG4 Fc
